From the Human Domainome abundance scans (Beltran et al. 2025) come the findings set out here.

± gives the uncertainty stated by the source.

B1: Membrane-associated guanylate kinase, WW and PDZ domain-containing protein 2, residues 601 to 682; numbered along this chain, Q86UL8 (parent)
chain: AELMTLTIVKGAQGFGFTIADSPTGQRVKQILDIQGCPGLCEGDLIVEINQQNVQNLSHTEVVDILKDCPIGSETSLIIHRG

In the data set the parent is B1. As to the kind of experiment: abundance fitness (aPCA) (normalised: wild type 0, dead -1); higher = more abundant; growth selection in yeast, the domain comes from the species named. Particulars: Homo sapiens.
With I65N, the abundance fitness was -0.256 ± 0.087.

Turning to I65A, the abundance fitness was -0.048 ± 0.037.

For the variant I65S, the abundance fitness is -0.059 ± 0.04.

With I65Q, the abundance fitness is -0.079 ± 0.047.

On to I65H, for which the abundance fitness is -0.242 ± 0.093.

Consider I65R, for which the abundance fitness was -0.064 ± 0.034.

With I65L, the abundance fitness is -0.072 ± 0.037.

For the variant I65D, the abundance fitness is -0.542 ± 0.13.

For I65E, the abundance fitness was -0.146 ± 0.052.

Consider I65G, for which the abundance fitness is -0.295 ± 0.038.

As for I65Y, the abundance fitness was -0.047 ± 0.063.

Turning to H59M, the abundance fitness was determined as 0.065 ± 0.1.

For the variant H59Y, the abundance fitness was -0.109 ± 0.11.

In the case of H59G, the abundance fitness is -0.018 ± 0.068.

Turning to H59P, the abundance fitness is -0.094 ± 0.083.

In the case of H59E, the abundance fitness turned out to be 0.126 ± 0.15.

Turning to H59W, the abundance fitness was -0.074 ± 0.1.

With H59T, the abundance fitness is -0.132 ± 0.1.

H59N: the abundance fitness was -0.009 ± 0.27.

On to H59D, for which the abundance fitness is -0.176 ± 0.093.

Take H59A: the abundance fitness is -0.088 ± 0.077.

Turning to H59Q, the abundance fitness was -0.014 ± 0.1.

Consider H59K, for which the abundance fitness was -0.132 ± 0.092.

As to H59R, the abundance fitness is -0.009 ± 0.057.

H59L: the abundance fitness is -0.01 ± 0.065.

With H59I, the abundance fitness is -0.142 ± 0.16.

H59S: the abundance fitness was -0.038 ± 0.083.

Regarding V54I, the abundance fitness is -0.07 ± 0.04.

For the variant V54D, the abundance fitness is -0.964 ± 0.14.

Take V54G: the abundance fitness was -0.523 ± 0.049.

For V54F, the abundance fitness is -0.867 ± 0.082.

Consider V54P, for which the abundance fitness is -0.806 ± 0.064.

Turning to V54E, the abundance fitness was -0.906 ± 0.16.

In the case of V54A, the abundance fitness is -0.053 ± 0.04.

Regarding V54T, the abundance fitness was -0.037 ± 0.035.

As for V54Y, the abundance fitness is -1 ± 0.12.

Turning to V54H, the abundance fitness is -1.18 ± 0.15.

Regarding V54W, the abundance fitness is -0.779 ± 0.11.

With V54L, the abundance fitness is -0.089 ± 0.029.

Take V54Q: the abundance fitness was -0.688 ± 0.064.

For the variant V54K, the abundance fitness was -0.855 ± 0.1.

Turning to V54R, the abundance fitness was -0.939 ± 0.082.

As for V54C, the abundance fitness is -0.086 ± 0.052.

Regarding V54S, the abundance fitness was -0.243 ± 0.034.

For the variant L57E, the abundance fitness was -0.038 ± 0.079.

L57K: the abundance fitness is -0.108 ± 0.15.

As for L57S, the abundance fitness stood at 0.028 ± 0.06.

In the case of L57M, the abundance fitness was -0.283 ± 0.14.

As to L57Q, the abundance fitness is -0.081 ± 0.13.

In the case of L57G, the abundance fitness was -0.152 ± 0.065.

With L57D, the abundance fitness is -0.109 ± 0.19.

On to L57T, for which the abundance fitness is -0.128 ± 0.14.

Take L57N: the abundance fitness amounted to 0.076 ± 0.16.

For L57W, the abundance fitness was -0.13 ± 0.11.

Consider L57V, for which the abundance fitness is -0.029 ± 0.067.

Consider L57H, for which the abundance fitness is -0.008 ± 0.14.

Consider L57C, for which the abundance fitness was -0.046 ± 0.15.

Turning to D68W, the abundance fitness is -0.166 ± 0.15.

Regarding D68E, the abundance fitness was -0.022 ± 0.088.

Consider D68M, for which the abundance fitness is 0.027 ± 0.15.

Consider D68P, for which the abundance fitness is -0.233 ± 0.26.

Take D68K: the abundance fitness was determined as 0.005 ± 0.13.

D68Y: the abundance fitness came to 0.011 ± 0.24.

As for D68V, the abundance fitness came out at 0.046 ± 0.082.

On to D68R, for which the abundance fitness was -0.136 ± 0.068.

On to D68T, for which the abundance fitness is -0.153 ± 0.095.

As for D68A, the abundance fitness was -0.14 ± 0.15.

With D68I, the abundance fitness is -0.271 ± 0.18.

D68G: the abundance fitness is -0.057 ± 0.1.

With D68Q, the abundance fitness came out at 0.07 ± 0.11.

D68H: the abundance fitness is 0.222 ± 0.28.

For the variant D68C, the abundance fitness is -0.101 ± 0.14.

D68F: the abundance fitness was -0.304 ± 0.5.

For D68L, the abundance fitness is -0.138 ± 0.086.

Consider I71R, for which the abundance fitness was -0.082 ± 0.076.

Take I71D: the abundance fitness was -0.101 ± 0.17.

Regarding I71H, the abundance fitness is -0.18 ± 0.23.

For the variant I71Q, the abundance fitness is -0.161 ± 0.096.

As to I71M, the abundance fitness is -0.004 ± 0.099.

With I71V, the abundance fitness was 0.006 ± 0.089.

For I71P, the abundance fitness was -0.052 ± 0.11.

As to I71T, the abundance fitness was -0.038 ± 0.15.

In the case of I71C, the abundance fitness is -0.101 ± 0.23.

As to I71F, the abundance fitness was -0.004 ± 0.21.

Take I71E: the abundance fitness is -0.033 ± 0.11.

As for I71K, the abundance fitness is -0.117 ± 0.24.

As to I71G, the abundance fitness stood at 0.038 ± 0.074.

In the case of I71A, the abundance fitness is -0.165 ± 0.1.

For the variant I71L, the abundance fitness is -0.099 ± 0.1.

On to N53T, for which the abundance fitness was -0.042 ± 0.035.

On to N53W, for which the abundance fitness was -0.201 ± 0.049.

Take N53H: the abundance fitness was -0.045 ± 0.036.

N53Y: the abundance fitness was -0.064 ± 0.038.

N53R: the abundance fitness is -0.061 ± 0.033.

N53G: the abundance fitness was -0.051 ± 0.037.

In the case of N53E, the abundance fitness was -0.043 ± 0.047.

For N53S, the abundance fitness was -0.022 ± 0.033.

In the case of N53M, the abundance fitness is -0.043 ± 0.05.

As to N53F, the abundance fitness was -0.095 ± 0.038.

Turning to N53K, the abundance fitness was -0.021 ± 0.042.

For the variant N53P, the abundance fitness is -0.001 ± 0.034.

Consider N53Q, for which the abundance fitness was -0.025 ± 0.042.

Take N53I: the abundance fitness was -0.076 ± 0.04.

On to N53A, for which the abundance fitness is -0.097 ± 0.034.

On to N53D, for which the abundance fitness is -0.025 ± 0.043.

As to N53L, the abundance fitness is -0.069 ± 0.03.

For K67A, the abundance fitness is -0.072 ± 0.083.

Consider K67F, for which the abundance fitness is -0.062 ± 0.31.

Regarding K67H, the abundance fitness was -0.23 ± 0.21.

Regarding K67I, the abundance fitness was -0.324 ± 0.13.

For the variant K67N, the abundance fitness was -0.022 ± 0.18.

K67S: the abundance fitness turned out to be 0.004 ± 0.083.

Take K67W: the abundance fitness was -0.224 ± 0.24.

For the variant K67E, the abundance fitness was -0.034 ± 0.17.

For K67T, the abundance fitness was 0.093 ± 0.11.

Turning to K67L, the abundance fitness is -0.083 ± 0.097.

With K67Q, the abundance fitness was -0.145 ± 0.13.

K67G: the abundance fitness is 0.052 ± 0.093.

K67M: the abundance fitness is -0.003 ± 0.1.

K67C: the abundance fitness was -0.117 ± 0.11.

Take K67Y: the abundance fitness was -0.226 ± 0.14.

Take K67V: the abundance fitness was -0.112 ± 0.14.

Regarding K67R, the abundance fitness worked out at 0.034 ± 0.089.

Consider V63E, for which the abundance fitness was -0.028 ± 0.12.

Turning to V63F, the abundance fitness was -0.432 ± 0.38.

Regarding V63W, the abundance fitness was -0.017 ± 0.11.

In the case of V63Q, the abundance fitness is -0.087 ± 0.23.

Regarding V63R, the abundance fitness was -0.072 ± 0.068.

V63M: the abundance fitness amounted to 0.041 ± 0.11.

V63L: the abundance fitness was -0.278 ± 0.2.

For V63S, the abundance fitness was -0.099 ± 0.13.

Turning to V63A, the abundance fitness was determined as 0.001 ± 0.067.

As to V63G, the abundance fitness is -0.067 ± 0.074.

Regarding V63D, the abundance fitness stood at 0.145 ± 0.41.

As for V63K, the abundance fitness is -0.095 ± 0.21.

In the case of V63H, the abundance fitness was -0.493 ± 0.21.

For V63C, the abundance fitness was -0.192 ± 0.15.

As for E61C, the abundance fitness is -0.039 ± 0.11.

Take E61G: the abundance fitness was -0.036 ± 0.065.

For the variant E61H, the abundance fitness was -0.051 ± 0.15.

For the variant E61V, the abundance fitness was -0.132 ± 0.089.

As for E61R, the abundance fitness amounted to 0.002 ± 0.1.

E61W: the abundance fitness is -0.374 ± 0.21.

Turning to E61A, the abundance fitness is -0.151 ± 0.094.

In the case of E61D, the abundance fitness is -0.005 ± 0.37.

With E61F, the abundance fitness is -0.381 ± 0.39.

Turning to E61T, the abundance fitness is -0.289 ± 0.14.

In the case of E61K, the abundance fitness is -0.137 ± 0.17.

On to E61L, for which the abundance fitness was -0.046 ± 0.071.

As for E61S, the abundance fitness was -0.2 ± 0.12.

On to E61I, for which the abundance fitness is -0.409 ± 0.32.

As for E61M, the abundance fitness is 0.08 ± 0.28.

Q55M: the abundance fitness was -0.01 ± 0.16.

On to Q55N, for which the abundance fitness was 0.039 ± 0.32.

For Q55K, the abundance fitness was -0.276 ± 0.18.

On to Q55I, for which the abundance fitness was -0.02 ± 0.12.

As to Q55G, the abundance fitness was determined as 0.073 ± 0.059.

For Q55A, the abundance fitness was -0.069 ± 0.095.

On to Q55S, for which the abundance fitness is -0.172 ± 0.097.

For the variant Q55W, the abundance fitness is -0.133 ± 0.082.

With Q55V, the abundance fitness was -0.027 ± 0.09.

For the variant Q55C, the abundance fitness is -0.111 ± 0.14.

Q55L: the abundance fitness was -0.106 ± 0.072.

On to Q55D, for which the abundance fitness was -0.111 ± 0.16.

As to Q55F, the abundance fitness stood at 0.043 ± 0.45.

On to Q55R, for which the abundance fitness came to 0.004 ± 0.052.

For Q55E, the abundance fitness is -0.029 ± 0.065.
